# T1: SE (His-tagged) (Arabidopsis thaliana, UniProt Q9ZVD0 1-720)
# T1 sequence: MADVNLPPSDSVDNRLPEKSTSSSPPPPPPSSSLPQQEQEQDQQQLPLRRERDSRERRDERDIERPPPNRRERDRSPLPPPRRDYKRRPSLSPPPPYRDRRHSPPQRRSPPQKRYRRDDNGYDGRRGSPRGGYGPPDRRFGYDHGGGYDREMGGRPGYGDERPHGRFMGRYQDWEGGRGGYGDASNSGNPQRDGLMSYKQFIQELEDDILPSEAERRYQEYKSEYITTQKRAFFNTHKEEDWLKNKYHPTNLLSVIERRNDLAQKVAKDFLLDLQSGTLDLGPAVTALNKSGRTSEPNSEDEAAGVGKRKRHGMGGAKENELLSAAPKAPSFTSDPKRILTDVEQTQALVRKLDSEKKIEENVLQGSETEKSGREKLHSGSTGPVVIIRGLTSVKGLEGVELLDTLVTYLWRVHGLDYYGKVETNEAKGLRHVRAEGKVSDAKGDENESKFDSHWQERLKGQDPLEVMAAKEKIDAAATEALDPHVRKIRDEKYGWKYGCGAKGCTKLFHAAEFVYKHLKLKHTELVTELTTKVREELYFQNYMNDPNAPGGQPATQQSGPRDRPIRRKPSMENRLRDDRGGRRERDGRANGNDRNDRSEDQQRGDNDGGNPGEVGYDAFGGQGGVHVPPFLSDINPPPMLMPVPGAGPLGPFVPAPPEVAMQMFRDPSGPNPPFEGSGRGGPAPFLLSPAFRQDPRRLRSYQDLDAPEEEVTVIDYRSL
# T2: SE143-720 (Arabidopsis thaliana, UniProt Q9ZVD0 143-720, del1-142)
# T2 sequence: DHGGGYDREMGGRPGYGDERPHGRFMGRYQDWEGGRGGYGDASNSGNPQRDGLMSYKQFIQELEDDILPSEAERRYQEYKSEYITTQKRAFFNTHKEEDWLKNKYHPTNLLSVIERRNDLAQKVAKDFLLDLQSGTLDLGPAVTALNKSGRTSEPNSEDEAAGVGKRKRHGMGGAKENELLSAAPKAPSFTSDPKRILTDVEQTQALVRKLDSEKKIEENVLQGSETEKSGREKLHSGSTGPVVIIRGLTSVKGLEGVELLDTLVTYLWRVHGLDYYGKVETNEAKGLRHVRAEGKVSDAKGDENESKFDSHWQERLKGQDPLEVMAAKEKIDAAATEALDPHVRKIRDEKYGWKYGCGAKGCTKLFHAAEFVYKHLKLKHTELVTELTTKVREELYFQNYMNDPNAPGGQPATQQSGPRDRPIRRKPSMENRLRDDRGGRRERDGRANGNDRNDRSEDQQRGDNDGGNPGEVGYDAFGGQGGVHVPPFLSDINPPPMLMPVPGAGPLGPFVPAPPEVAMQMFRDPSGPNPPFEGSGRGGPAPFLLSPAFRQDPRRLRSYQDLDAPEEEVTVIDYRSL
# Key:
# DCL1;SE1-701 = DCL1;SE1-701 (Arabidopsis thaliana;Arabidopsis …, UniProt Q9SP32;Q9ZVD0 1-1909;1-701, |del702-720); assay: SPR; SE1-701 injected on preformed DCL1/RNA complex, 50 mM NaCl; as wild-type SE; SPR (Biacore T100): 20 mM Tris-HCl pH 7.0, 50 or 150 mM NaCl, 2 mM β-ME (0.005% P20 for SE variants); proteins 42-43 nM (Fig 2E), SE 20 nM (Fig 4), 16 nM DCL1 for complex; temperature not stated; details: protein: recombinant;recombinant; tags: none (His6-StrepII-SUMOstar removed);N-terminal His6; vector also has inserted myc and Strep-tag II; label: 5'-biotin on strand 1; fork: 40 bp duplex; 20-nt 3' tail of strand 1 and 20-nt 5' tail of strand 2 unpaired; other end blunt
# Sequence of DCL1;SE1-701 (Q9SP32 whole entry, stated change not applied, one chain of several): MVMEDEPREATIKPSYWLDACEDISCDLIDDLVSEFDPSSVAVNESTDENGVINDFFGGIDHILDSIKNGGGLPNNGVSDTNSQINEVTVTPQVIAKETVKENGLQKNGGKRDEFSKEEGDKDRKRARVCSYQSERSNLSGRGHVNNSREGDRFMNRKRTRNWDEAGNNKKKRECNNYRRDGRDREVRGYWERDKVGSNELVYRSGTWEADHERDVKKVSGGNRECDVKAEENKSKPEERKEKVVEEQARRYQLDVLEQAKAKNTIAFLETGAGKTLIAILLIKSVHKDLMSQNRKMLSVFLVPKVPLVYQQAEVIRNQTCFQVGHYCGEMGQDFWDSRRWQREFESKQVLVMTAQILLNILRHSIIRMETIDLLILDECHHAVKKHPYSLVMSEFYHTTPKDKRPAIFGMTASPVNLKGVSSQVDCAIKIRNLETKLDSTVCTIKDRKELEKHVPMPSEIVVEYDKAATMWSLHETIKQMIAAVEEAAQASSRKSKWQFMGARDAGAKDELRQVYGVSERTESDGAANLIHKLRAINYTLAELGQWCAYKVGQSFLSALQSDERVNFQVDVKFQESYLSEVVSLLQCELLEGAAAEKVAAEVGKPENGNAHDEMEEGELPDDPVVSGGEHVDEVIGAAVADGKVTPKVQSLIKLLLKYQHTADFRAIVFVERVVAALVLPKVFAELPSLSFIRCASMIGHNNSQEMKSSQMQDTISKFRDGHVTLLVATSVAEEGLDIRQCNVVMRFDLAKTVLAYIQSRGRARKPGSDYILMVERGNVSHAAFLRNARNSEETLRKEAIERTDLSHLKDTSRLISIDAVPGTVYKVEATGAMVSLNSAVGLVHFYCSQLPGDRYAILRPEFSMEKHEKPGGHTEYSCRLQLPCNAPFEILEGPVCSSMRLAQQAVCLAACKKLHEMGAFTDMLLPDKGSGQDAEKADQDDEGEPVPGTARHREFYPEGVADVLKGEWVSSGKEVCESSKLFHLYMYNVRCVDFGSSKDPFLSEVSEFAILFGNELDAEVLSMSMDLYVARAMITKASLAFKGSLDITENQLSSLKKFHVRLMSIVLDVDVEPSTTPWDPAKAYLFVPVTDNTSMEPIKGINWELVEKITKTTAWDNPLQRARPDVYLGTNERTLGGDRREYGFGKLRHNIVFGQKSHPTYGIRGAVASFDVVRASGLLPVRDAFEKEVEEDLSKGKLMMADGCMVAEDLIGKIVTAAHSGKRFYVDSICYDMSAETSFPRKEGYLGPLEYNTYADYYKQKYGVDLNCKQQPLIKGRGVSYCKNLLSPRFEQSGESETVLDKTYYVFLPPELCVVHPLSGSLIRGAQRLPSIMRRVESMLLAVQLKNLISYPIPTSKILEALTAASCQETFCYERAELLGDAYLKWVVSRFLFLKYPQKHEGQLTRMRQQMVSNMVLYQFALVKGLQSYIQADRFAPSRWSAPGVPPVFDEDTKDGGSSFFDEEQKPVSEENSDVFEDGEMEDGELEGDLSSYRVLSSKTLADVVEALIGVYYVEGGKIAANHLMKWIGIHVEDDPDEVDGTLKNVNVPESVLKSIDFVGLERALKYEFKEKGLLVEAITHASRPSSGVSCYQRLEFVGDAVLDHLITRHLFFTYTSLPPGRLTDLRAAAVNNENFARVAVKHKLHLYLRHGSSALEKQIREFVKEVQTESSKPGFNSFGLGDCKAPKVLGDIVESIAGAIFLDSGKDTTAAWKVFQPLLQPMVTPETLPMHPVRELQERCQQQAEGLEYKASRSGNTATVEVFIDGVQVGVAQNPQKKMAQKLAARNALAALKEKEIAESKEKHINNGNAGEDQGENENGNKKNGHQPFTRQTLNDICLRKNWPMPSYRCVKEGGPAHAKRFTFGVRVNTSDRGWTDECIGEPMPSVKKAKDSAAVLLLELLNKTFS
# SE (His-tagged) = target: T1, SE (His-tagged); assay: SPR; 50 mM NaCl, 20 nM protein; SPR (Biacore T100): 20 mM Tris-HCl pH 7.0, 50 or 150 mM NaCl, 2 mM β-ME (0.005% P20 for SE variants); proteins 42-43 nM (Fig 2E), SE 20 nM (Fig 4), 16 nM DCL1 for complex; temperature not stated; details: protein: recombinant; tags: N-terminal His6; vector also has inserted myc and Strep-tag II; label: 5'-biotin on strand 1; fork: 40 bp duplex; 20-nt 3' tail of strand 1 and 20-nt 5' tail of strand 2 unpaired; other end blunt
# DCL1;SE143-720 = DCL1;SE143-720 (Arabidopsis thaliana;Arabidopsis …, UniProt Q9SP32;Q9ZVD0 1-1909;143-720, |del1-142); assay: SPR; SE143-720 injected on preformed DCL1/RNA complex, 50 mM NaCl; SPR (Biacore T100): 20 mM Tris-HCl pH 7.0, 50 or 150 mM NaCl, 2 mM β-ME (0.005% P20 for SE variants); proteins 42-43 nM (Fig 2E), SE 20 nM (Fig 4), 16 nM DCL1 for complex; temperature not stated; details: protein: recombinant;recombinant; tags: none (His6-StrepII-SUMOstar removed);N-terminal His6; vector also has inserted myc and Strep-tag II; label: 5'-biotin on strand 1; fork: 40 bp duplex; 20-nt 3' tail of strand 1 and 20-nt 5' tail of strand 2 unpaired; other end blunt
# Sequence of DCL1;SE143-720 (Q9SP32 whole entry, stated change not applied, one chain of several): as above
# SE143-720 = target: T2, SE143-720; assay: SPR; 50 mM NaCl, 20 nM protein; SPR (Biacore T100): 20 mM Tris-HCl pH 7.0, 50 or 150 mM NaCl, 2 mM β-ME (0.005% P20 for SE variants); proteins 42-43 nM (Fig 2E), SE 20 nM (Fig 4), 16 nM DCL1 for complex; temperature not stated; details: protein: recombinant; tags: N-terminal His6; vector also has inserted myc and Strep-tag II; label: 5'-biotin on strand 1; fork: 40 bp duplex; 20-nt 3' tail of strand 1 and 20-nt 5' tail of strand 2 unpaired; other end blunt
# DCL1 = DCL1 (Arabidopsis thaliana, UniProt Q9SP32 1-1909); assay: SPR; 50 mM NaCl; SPR (Biacore T100): 20 mM Tris-HCl pH 7.0, 50 or 150 mM NaCl, 2 mM β-ME (0.005% P20 for SE variants); proteins 42-43 nM (Fig 2E), SE 20 nM (Fig 4), 16 nM DCL1 for complex; temperature not stated; details: protein: recombinant; tags: none (His6-StrepII-SUMOstar removed); chain copies: 3; label: 5'-biotin on strand 1; fork: 40 bp duplex; 20-nt 3' tail of strand 1 and 20-nt 5' tail of strand 2 unpaired; other end blunt
# Sequence of DCL1 (Q9SP32 whole entry): as the sequence (Q9SP32 whole entry, stated change not applied, one chain of several) above
# DCL1;SE (His-tagged) = DCL1;SE (His-tagged) (Arabidopsis thaliana;Arabidopsis …, UniProt Q9SP32;Q9ZVD0 1-1909;1-720, |); assay: SPR; SE injected on preformed DCL1/RNA complex, 50 mM NaCl; SE:DCL1 2.4:1; SPR (Biacore T100): 20 mM Tris-HCl pH 7.0, 50 or 150 mM NaCl, 2 mM β-ME (0.005% P20 for SE variants); proteins 42-43 nM (Fig 2E), SE 20 nM (Fig 4), 16 nM DCL1 for complex; temperature not stated; details: protein: recombinant;recombinant; tags: none (His6-StrepII-SUMOstar removed);N-terminal His6; vector also has inserted myc and Strep-tag II; label: 5'-biotin on strand 1; fork: 40 bp duplex; 20-nt 3' tail of strand 1 and 20-nt 5' tail of strand 2 unpaired; other end blunt
# Sequence of DCL1;SE (His-tagged) (Q9SP32 whole entry, one chain of several): as the sequence (Q9SP32 whole entry, stated change not applied, one chain of several) above
binder,measurement,setting,value
forked-RNA (dsRNA) RNA 1: CAACCCAAGAUAGAUCAUGCAGGCAGCUUCAUCAGAUGCCGCUCCCUCUUUUUUUCUCUA RNA 2: GCUCCCUCUUUUUUUCUCUAGGCAUCUGAUGAAGCUGCCUGCAUGAUCUAUCUUGGGUUG,binding result,DCL1;SE1-701,binds
same,binding result,SE (His-tagged),binds
same,binding signal,DCL1;SE143-720,2 fold less RUmax vs wild-type SE
same,binding signal,SE143-720,6 fold reduction vs wild-type SE
same,binding result,DCL1,binds
same,binding result,DCL1;SE (His-tagged),binds
